The values that follow come from the RNAGym collection of RNA variant scans (doi:10.7554/elife.80360).

B1: HDV Ribozyme (parent)
chain: GGCCGGCAUGGUCCCAGCCUCCUCGCUGGCGCCGGCUGGGCAACAUUCCGAGGGGACCGUCCCCUCGGUAAUGGCGAAUGGGACCCA

In the data set the parent is B1. The data set is described as follows: self-cleavage, relative activity (ratio to wild type); higher = more cleavage; co-transcriptional.
For the variant GGCCGGCAUGGUCCCAGCCUCCUCGCUGGCGCCGGCUGGGCAACAUUCCGAGGGGACCGUCCCCUAGGUAAUGGUGAAUGGGACCCA, the self-cleavage turned out to be 0.292.

On to GGCCGGCAUGGUCCCAGCCUCCUCGCUGGCGCCGGCUGGGCAACAUUCCGAGGGGACCGUCCCCUAGGUAAUGGGGAAUGGGACCCA, for which the self-cleavage stood at 0.181.

For GGCCGGCAUGGUCCCAGCCUCCUCGCUGGCGCCGGCUGGGCAACAUUCCGAGGGGACCGUCCCCUAGGUAAUGGCGAAUGGGACACA, the self-cleavage was 0.939.

With GGCCGGCAUGGUCCCAGCCUCCUCGCUGGCGCCGGCUGGGCAACAUUCCGAGGGGACCGUCCCCUAGGUACUGGCGAAUGGGACCCA, the self-cleavage is 0.866.

On to GGCCGGCAUGGUCCCAGCCUCCUCGCUGGCGCCGGCUGGGCAACAUUCCGAGGGGACCGUCCCCUAGGUAGUGGCGAAUGGGACCCA, for which the self-cleavage is 0.782.

For the variant GGCCGGCAUGGUCCCAGCCUCCUCGCUGGCGCCGGCUGGGCAACAUUCCGAGGGGACCGUCCCCUAGGUAAUGGCGAAUGGGACCAA, the self-cleavage turned out to be 0.769.

GGCCGGCAUGGUCCCAGCCUCCUCGCUGGCGCCGGCUGGGCAACAUUCCGAGGGGACCGUCCCCUAGGUAAUGGCGAAUGGGACCUA: the self-cleavage was determined as 0.9.

As for GGCCGGCAUGGUCCCAGCCUCCUCGCUGGCGCCGGCUGGGCAACAUUCCGAGGGGACCGUCCCCUAGGUAAUGGCGAAUGGGACCCG, the self-cleavage is 0.898.

For GGCCGGCAUGGUCCCAGCCUCCUCGCUGGCGCCGGCUGGGCAACAUUCCGAGGGGACCGUCCCCUAGGUAAUGACGAAUGGGACCCA, the self-cleavage was determined as 0.519.

In the case of GGCCGGCAUGGUCCCAGCCUCCUCGCUGGCGCCGGCUGGGCAACAUUCCGAGGGGACCGUCCCCUAGGUAAUGUCGAAUGGGACCCA, the self-cleavage turned out to be 0.739.

Take GGCCGGCAUGGUCCCAGCCUCCUCGCUGGCGCCGGCUGGGCAACAUUCCGAGGGGACCGUCCCCUAGGUAAUGCCGAAUGGGACCCA: the self-cleavage was found to be 0.293.

On to GGCCGGCAUGGUCCCAGCCUCCUCGCUGGCGCCGGCUGGGCAACAUUCCGAGGGGACCGUCCCCUACGUAAUGGCGAAUGGGACCCA, for which the self-cleavage came to 0.845.

Take GGCCGGCAUGGUCCCAGCCUCCUCGCUGGCGCCGGCUGGGCAACAUUCCGAGGGGACCGUCCCCUAUGUAAUGGCGAAUGGGACCCA: the self-cleavage was determined as 0.878.

As for GGCCGGCAUGGUCCCAGCCUCCUCGCUGGCGCCGGCUGGGCAACAUUCCGAGGGGACCGUCCCCUAGGUAAUCGCGAAUGGGACCCA, the self-cleavage turned out to be 0.277.

GGCCGGCAUGGUCCCAGCCUCCUCGCUGGCGCCGGCUGGGCAACAUUCCGAGGGGACCGUCCCCUAGGUAAUAGCGAAUGGGACCCA: the self-cleavage worked out at 0.63.

Turning to GGCCGGCAUGGUCCCAGCCUCCUCGCUGGCGCCGGCUGGGCAACAUUCCGAGGGGACCGUCCCCUAGGUAAUUGCGAAUGGGACCCA, the self-cleavage is 0.171.

Consider GGCCGGCAUGGUCCCAGCCUCCUCGCUGGCGCCGGCUGGGCAACAUUCCGAGGGGACCGUCCCCUAGGUAAUGGCGAAUGGGAACCA, for which the self-cleavage was determined as 0.831.

Consider GGCCGGCAUGGUCCCAGCCUCCUCGCUGGCGCCGGCUGGGCAACAUUCCGAGGGGACCGUCCCCUAGGUAAUGGCGAAUGGGAUCCA, for which the self-cleavage was found to be 0.696.

For GGCCGGCAUGGUCCCAGCCUCCUCGCUGGCGCCGGCUGGGCAACAUUCCGAGGGGACCGUCCCCUAGGUAAUGGCGAUUGGGACCCA, the self-cleavage stood at 0.198.

Regarding GGCCGGCAUGGUCCCAGCCUCCUCGCUGGCGCCGGCUGGGCAACAUUCCGAGGGGACCGUCCCCUAGGUAAUGGCGAGUGGGACCCA, the self-cleavage is 0.538.

As for GGCCGGCAUGGUCCCAGCCUCCUCGCUGGCGCCGGCUGGGCAACAUUCCGAGGGGACCGUCCCCUAGGUAAUGGCGAAUGGGUCCCA, the self-cleavage came to 0.225.

Take GGCCGGCAUGGUCCCAGCCUCCUCGCUGGCGCCGGCUGGGCAACAUUCCGAGGGGACCGUCCCCUAGGUAAUGGCGAAUGGGGCCCA: the self-cleavage stood at 0.641.

Regarding GGCCGGCAUGGUCCCAGCCUCCUCGCUGGCGCCGGCUGGGCAACAUUCCGAGGGGACCGUCCCCUAGGUAAUGGCGAAUGGGCCCCA, the self-cleavage is 0.527.

In the case of GGCCGGCAUGGUCCCAGCCUCCUCGCUGGCGCCGGCUGGGCAACAUUCCGAGGGGACCGUCCCCUAGGUUAUGGCGAAUGGGACCCA, the self-cleavage was 1.08.

With GGCCGGCAUGGUCCCAGCCUCCUCGCUGGCGCCGGCUGGGCAACAUUCCGAGGGGACCGUCCCCUAGAUAAUGGCGAAUGGGACCCA, the self-cleavage worked out at 0.805.

As for GGCCGGCAUGGUCCCAGCCUCCUCGCUGGCGCCGGCUGGGCAACAUUCCGAGGGGACCGUCCCCUAGCUAAUGGCGAAUGGGACCCA, the self-cleavage came to 0.453.

On to GGCCGGCAUGGUCCCAGCCUCCUCGCUGGCGCCGGCUGGGCAACAUUCCGAGGGGACCGUCCCCUAGGUAAUGGCGGAUGGGACCCA, for which the self-cleavage turned out to be 0.706.

Consider GGCCGGCAUGGUCCCAGCCUCCUCGCUGGCGCCGGCUGGGCAACAUUCCGAGGGGACCGUCCCCUAGGUAAUGGCGUAUGGGACCCA, for which the self-cleavage worked out at 0.776.

GGCCGGCAUGGUCCCAGCCUCCUCGCUGGCGCCGGCUGGGCAACAUUCCGAGGGGACCGUCCCCUAGGUAAUGGCGAAUAGGACCCA: the self-cleavage was 0.54.

Turning to GGCCGGCAUGGUCCCAGCCUCCUCGCUGGCGCCGGCUGGGCAACAUUCCGAGGGGACCGUCCCCUAGGUAAUGGCGAAUUGGACCCA, the self-cleavage came to 0.304.

As to GGCCGGCAUGGUCCCAGCCUCCUCGCUGGCGCCGGCUGGGCAACAUUCCGAGGGGACCGUCCCCUAGGUAAUGGCUAAUGGGACCCA, the self-cleavage came out at 0.981.

In the case of GGCCGGCAUGGUCCCAGCCUCCUCGCUGGCGCCGGCUGGGCAACAUUCCGAGGGGACCGUCCCCUAGGUAAUGGCCAAUGGGACCCA, the self-cleavage was 0.976.
